Laboratory results as given in the supplement of paper PMC10126150.
± gives the standard deviation of the averaged measurements.

test system: ATP; test: switch fluorescence ratio, 500 uM ATP over buffer (Cy3 cluster intensity, sum of 5 cycles each) (fold (ratio)); higher = stronger signal-on switching upon ATP binding; sequences stand for … in TCGTCGGCAGCGTCAGATGTGTATAAGAGACAGTTTTTTTTTTTTTTTTTTTTTTTTT…TC; details: aptamer strand: ATP DNA aptamer (quencher-CACCTGGGGGAGTATTGCGGAGGAAGG + anchor), 100 nM annealed; ATP concentration: 500 uM
In short: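 Values give the fluorescence ratio for each switch-domain sequence, averaged from per-cluster ratios of summed target-cycle to summed buffer-cycle Cy3 intensity. The Cy3-labelled switching-strand clusters sat on a modified Illumina MiSeq flow-cell, were annealed to 100 nM quencher-labelled ATP aptamer, and were imaged in selection buffer, then after 15 min with 500 uM ATP at 22 °C. Five cycles ran with NaOH stripping and re-annealing between them, and clusters outside 100-1000 RFU were excluded.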
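Also: ATP exposure 15 min at 22 °C before imaging.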

| Sequence | switch fluorescence ratio |
| --- | --- |
| CAAACGCCGA | 1.103 ± 0.0045 |
| AAGGTTAGAC | 1.03 ± 0.012 |
| GATGGGCTTT | 0.983 ± 0.024 |
| GGAGTGTTGG | 1.002 ± 0.0051 |
| TCGTTTGGAA | 1 ± 0.025 |
| AAGGGATACG | 1.02 ± 0.015 |
| GGTCGAGGGG | 0.997 ± 0.021 |
| TTGTCGGGTG | 1.03 ± 0.089 |
| TTGTGAATTT | 1.28 ± 0.43 |
| AATCCTGTTT | 1.01 ± 0.067 |
| AATGTGTCCC | 0.991 ± 0.041 |
| TTACAGGGGG | 1.03 ± 0.057 |
| TGGGAAATAT | 0.9726 ± 0.0072 |
| AATGATTGTT | 0.992 ± 0.03 |
| GATAGTTGTA | 1.01 ± 0.028 |
| GAATATCAAG | 0.9871 ± 0.0064 |
| ATATGCAGGG | 0.993 ± 0.00024 |
| AAAGTTCGTA | 0.985 ± 0.039 |
| AGTTTTTATA | 1.002 ± 0.0012 |
| GGGAAGAAGC | 0.997 ± 0.054 |
| AGAGAGGTTT | 0.986 ± 0.039 |
| GGGGCCATTT | 0.99 ± 0.033 |
| CGCGAAGGGT | 1.01 ± 0.026 |

| Sequence | switch fluorescence ratio |
| --- | --- |
| ATACTTGGCT | 0.992 ± 0.02 |
| ATTTTTTACG | 1.02 ± 0.031 |
| AGTATGGAGC | 0.9983 ± 0.004 |
| CACTGGACGG | 1.28 ± 0.049 |
| TCCCTCAGGG | 1.46 ± 0.078 |
| ACCGCGGTCG | 0.974 ± 0.049 |
| AAATATTTTA | 0.999 ± 0.015 |
| TTTTATCTGT | 1.01 ± 0.091 |
| TCGGACTTTT | 1.04 ± 0.012 |
| TTTCGGACGC | 1.35 ± 0.33 |
| GATAATAAAC | 1.06 ± 0.045 |
| TCAGTATAGC | 1.018 ± 0.004 |
| GCACCTGGGC | 0.991 ± 0.039 |
| GGGTGGCAGC | 0.993 ± 0.031 |
| AATTAGACGT | 0.988 ± 0.015 |
| ACTTGTGTAA | 1.018 ± 0.0021 |
| TAGGAGGGTT | 0.987 ± 0.026 |
| ATATGCGATG | 0.97 ± 0.051 |
| TAGGTTTAGT | 0.9841 ± 0.0094 |
| CATGGTAAAT | 0.984 ± 0.018 |
| TGTCAGTTGG | 1.02 ± 0.06 |
| TGCGATTCTG | 0.978 ± 0.032 |
| ACGTGTTGGC | 1.02 ± 0.052 |

| Sequence | switch fluorescence ratio |
| --- | --- |
| CATTGTATGT | 0.9421 ± 0.0087 |
| GGGGACCAGT | 0.9845 ± 0.0031 |
| TTATATATCA | 1.01 ± 0.013 |
| GATTGGTATT | 0.995 ± 0.044 |
| GATTGTAGGT | 1 ± 0.015 |
| GATTGACGTG | 0.957 ± 0.08 |
| GTTATGGCTG | 1.05 ± 0.021 |
| GACGTTTTTG | 0.996 ± 0.011 |
| AGTGAGGTTG | 0.977 ± 0.049 |
| GATGCGTGGC | 0.998 ± 0.027 |
| ATAGGGGCTC | 0.988 ± 0.021 |
| AAGTGGAGTG | 0.999 ± 0.041 |
| GGAGGGAGGG | 1.02 ± 0.059 |
| CCAATTTTAC | 1.39 ± 0.055 |
| CGGATGGAAA | 0.964 ± 0.02 |
| AGGTCTAGC | 0.995 ± 0.017 |
| TGAGCTAGGG | 1.005 ± 0.0026 |
| ATATGGGAAG | 1 ± 0.048 |
| TTTTGAAGTG | 1.02 ± 0.034 |
| CCAAGTAAGG | 1.08 ± 0.031 |
| TATTATTGGA | 1 ± 0.042 |
| CATGGGAATT | 0.982 ± 0.032 |
| GGGCTTATGG | 0.975 ± 0.054 |

| Sequence | switch fluorescence ratio |
| --- | --- |
| TGATGAGGGT | 1.02 ± 0.02 |
| TTCCAGGTGG | 1.42 ± 0.14 |
| GAATTGTTAG | 0.972 ± 0.028 |
| ACGGGCTTCG | 1.05 ± 0.049 |
| ATTGACGTAT | 1.07 ± 0.13 |
| TTCGGGGGCT | 1.01 ± 0.071 |
| TTTGGTGACG | 1.09 ± 0.029 |
| ATAGTCGCGC | 0.993 ± 0.058 |
| CAGGTCGGCT | 0.995 ± 0.052 |
| GGTGGGTGGG | 0.999 ± 0.042 |
| TAAAATTTTA | 0.988 ± 0.023 |
| AGACTTCCGG | 0.969 ± 0.048 |
| GGCCTGGATC | 1.02 ± 0.057 |
| TGTTTTTCTG | 0.968 ± 0.039 |
| TTTGGGTTCA | 0.972 ± 0.026 |
| GAAATTTTCC | 1.35 ± 0.077 |
| TTTGAAAGTT | 1.01 ± 0.015 |
| ACCGTTTGGT | 0.999 ± 0.038 |
| GGTGGTTGGA | 1.02 ± 0.04 |
| TGGGTACGCT | 1.01 ± 0.022 |
| GCTTCCAGGG | 1.14 ± 0.094 |
| TCCGACGGTT | 3.31 ± 0.46 |
| AGGAATAAA | 0.976 ± 0.052 |

| Sequence | switch fluorescence ratio |
| --- | --- |
| GGGGCCAGCT | 0.974 ± 0.043 |
| TCGTTAATTA | 1.06 ± 0.026 |
| GGACGGGGTT | 0.97 ± 0.019 |
| GGGTTCAGGG | 0.977 ± 0.02 |
| TAAAGCAGTA | 0.995 ± 0.018 |
| AAAATTAACG | 1.04 ± 0.028 |
| TTTCTAGTCT | 0.935 ± 0.0085 |
| GATTAATAAG | 1.16 ± 0.26 |
| ATTAAACCAG | 1.1 ± 0.11 |
| TTCTTAACAT | 1.054 ± 0.01 |
| TATGTAAATT | 1.01 ± 0.012 |
| CATGCGAGGG | 1 ± 0.035 |
| CTGTCTGAGT | 0.9632 ± 0.007 |
| AGCTAATTCG | 1.03 ± 0.045 |
| GCAAGGCGGA | 1.03 ± 0.0091 |
| AGCCCTGGCG | 0.9504 ± 0.0071 |
| CGGGTCTCGA | 1.03 ± 0.04 |
| TTTGTGTTG | 0.977 ± 0.024 |
| ACCTAGTTTT | 1.011 ± 0.0078 |
| CGGCGCTGGA | 1.01 ± 0.055 |
| GTGTAAGGGG | 0.9943 ± 0.0094 |
| TGGGCCGGTG | 1.04 ± 0.05 |
| TAAAACTTGG | 0.999 ± 0.065 |

| Sequence | switch fluorescence ratio |
| --- | --- |
| GCAATCGGAG | 1.27 ± 0.025 |
| TTTACCCAGT | 1.04 ± 0.066 |
| TTTTCCAAGG | 1.06 ± 0.031 |
| TGCGGTAGAA | 1.01 ± 0.024 |
| AGTAACATTT | 0.974 ± 0.069 |
| AAGAAAGTGG | 0.993 ± 0.034 |
| GCAAAAAAAG | 0.96 ± 0.077 |
| AATGTAAACG | 0.978 ± 0.027 |
| AAAACAGCCG | 0.957 ± 0.1 |
| CTTGCCTCAG | 1.021 ± 0.0076 |
| GGGTGTGAGT | 1.03 ± 0.018 |
| AAGGTGCGGG | 0.999 ± 0.023 |
| CGGGAAAATA | 1.03 ± 0.014 |
| GGTTTGGGTT | 0.998 ± 0.037 |
| ACGAGGACAG | 1.06 ± 0.0025 |
| GACGGTTTTT | 1.01 ± 0.024 |
| AAGTGGTGTC | 0.99 ± 0.13 |
| CGTTTTTAGA | 0.967 ± 0.031 |
| GCCCTGCAAT | 1.17 ± 0.056 |
| TATCGGGATA | 0.994 ± 0.021 |
| TGCCGCTTCT | 1.02 ± 0.058 |
| CGGGGTACGC | 1 ± 0.076 |
| CCGCGTCTGT | 1.24 ± 0.032 |

| Sequence | switch fluorescence ratio |
| --- | --- |
| TAATAGGGTG | 1.08 ± 0.042 |
| GCTATTCGAC | 1.16 ± 0.022 |
| TCGAGTTTGG | 1.01 ± 0.022 |
| AGAAAGTTGA | 1.024 ± 0.01 |
| GATGAAGGTA | 0.991 ± 0.052 |
| GGAGCCCGGT | 1.01 ± 0.029 |
| TCTTCGGAGT | 1.03 ± 0.058 |
| CGTATGCGCA | 0.97 ± 0.028 |
| ATCATGTCTA | 1.04 ± 0.047 |
| GAATGACAGT | 0.978 ± 0.018 |
| TTCGGCAGTG | 1.022 ± 0.0079 |
| GTGGTTCCAA | 0.9932 ± 0.0063 |
| CCGAGTTATA | 2.15 ± 0.013 |
| AATAAAATCG | 1.04 ± 0.01 |
| ATGGTTCCCT | 1.01 ± 0.02 |
| TTGGAGAAA | 1.27 ± 0.36 |
| TGGGTTTTCT | 1.08 ± 0.28 |
| GATTTGCTTT | 0.98 ± 0.013 |
| TGCCTTTCGG | 0.9909 ± 0.0062 |
